Measured values taken from US20240075134A1 (Seagen, published 2024).

What was measured:
murine CD40 = target: T1, murine CD40 (murine, UniProt P27512 20-193, limits assumed); test: not described
T1 sequence (looked up): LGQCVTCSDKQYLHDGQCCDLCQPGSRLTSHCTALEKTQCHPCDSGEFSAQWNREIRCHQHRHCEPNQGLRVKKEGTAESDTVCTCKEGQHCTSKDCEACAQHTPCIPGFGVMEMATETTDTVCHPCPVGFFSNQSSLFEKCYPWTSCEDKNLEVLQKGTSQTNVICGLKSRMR

[1] = target: T2, human CD40 on the surface of PBMCs (human, UniProt P25942 21-277); test: cell-based or functional assay
T2 sequence (P25942 21-277): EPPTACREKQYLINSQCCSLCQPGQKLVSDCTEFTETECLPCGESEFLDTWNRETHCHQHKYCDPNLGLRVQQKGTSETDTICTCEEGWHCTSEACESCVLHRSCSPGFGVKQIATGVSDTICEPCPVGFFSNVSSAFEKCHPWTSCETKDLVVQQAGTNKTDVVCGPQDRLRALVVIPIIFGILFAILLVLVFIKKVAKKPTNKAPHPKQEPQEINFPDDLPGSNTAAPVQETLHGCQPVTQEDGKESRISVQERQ

[2] = target: T2, human CD40 on the surface of PBMCs; test: cell-based or functional assay; remark: listed apart in the source
[3] = target: T3, human FcγRIIIa, low affinity (158F) form, on CHO cells (human, UniProt P08637 17-254); test: flow cytometry, biotinylated antibody on CHO cells expressing FcγRIIIa 158F
T3 construct: whole, on cells; Allotype with F at position 158 as printed; also called FcγRIIIa 158F
T3 sequence (P08637 17-254): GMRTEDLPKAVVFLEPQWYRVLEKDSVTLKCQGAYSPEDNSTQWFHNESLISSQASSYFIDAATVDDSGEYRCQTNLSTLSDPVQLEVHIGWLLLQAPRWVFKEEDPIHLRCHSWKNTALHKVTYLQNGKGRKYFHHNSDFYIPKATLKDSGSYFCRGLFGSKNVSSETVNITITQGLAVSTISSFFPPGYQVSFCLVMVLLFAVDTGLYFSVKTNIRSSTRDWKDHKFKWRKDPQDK

[4] = target: T4, human FcγRIIIa, high affinity (158V) form, on CHO cells (human, UniProt P08637 17-254); test: flow cytometry, biotinylated antibody on CHO cells expressing FcγRIIIa 158V
T4 construct: whole, on cells; Position 158 probably counts on the mature protein; also called FcγRIIIa 158V
T4 sequence (P08637 17-254 F176V): as the sequence (P08637 17-254) above, with F160V counted along it

B1: SEA-CD40 (non-fucosylated humanized S2C6 antibody) (antibody, human IgG1, kappa)
heavy: not shown
light: DIQMTQSPSSLSASVGDRVTITCRSSQSLVHSNGNTFLHWYQQKPGKAPKLLIYTVSNRFSGVPSRFSGSGSGTDFTLTISSLQPEDFATYFCSQTTHVPWTFGQGTKVEIKRTVAAPSVFIFPPSDEQLKSGTASVVCLLNNFYPREAKVQWKVDNALQSGNSQESVTEQDSKDSTYSLSSTLTLSKADYEKHKVYACEVTHQGLSSPVTKSFNRGEC
notes: also called SEA40; non-fucosylated hS2C6; copies: 2 + 2
With B1 the binding result (murine CD40) was “no binding”, the “EC50 of CD86 upregulation on PBMCs (24 hr)” value [1] was 0.14 µg/mL and the “EC50 of MHCI upregulation on PBMCs (48 hr)” value [1] was 0.011 µg/mL. The “EC50 of MHCII upregulation on PBMCs (24 hr)” value [1] was 0.41 µg/mL, the “MHCII surface expression on PBMCs, ratio to SEA-h00; SEA-CD40 0.0001 µg/mL, 6 hrs” value [2] was 0.85 fold and the “MHCII surface expression on PBMCs, ratio to SEA-h00; SEA-CD40 0.0001 µg/mL, 24 hrs” value [2] was 1.05 fold. The “MHCII surface expression on PBMCs, ratio to SEA-h00; SEA-CD40 0.0001 µg/mL, 48 hrs” value [2] was 0.99 fold, the “MHCII surface expression on PBMCs, ratio to SEA-h00; SEA-CD40 0.001 µg/mL, 6 hrs” value [2] was 1 fold and the “MHCII surface expression on PBMCs, ratio to SEA-h00; SEA-CD40 0.001 µg/mL, 24 hrs” value [2] was 1.07 fold. For the same binder, the “MHCII surface expression on PBMCs, ratio to SEA-h00; SEA-CD40 0.001 µg/mL, 48 hrs” value [2] was 1.1 fold, the “MHCII surface expression on PBMCs, ratio to SEA-h00; SEA-CD40 0.01 µg/mL, 6 hrs” value [2] was 0.9 fold and the “MHCII surface expression on PBMCs, ratio to SEA-h00; SEA-CD40 0.01 µg/mL, 24 hrs” value [2] was 1.21 fold. For the same binder, the “MHCII surface expression on PBMCs, ratio to SEA-h00; SEA-CD40 0.01 µg/mL, 48 hrs” value [2] was 1.38 fold, the “MHCII surface expression on PBMCs, ratio to SEA-h00; SEA-CD40 0.1 µg/mL, 6 hrs” value [2] was 0.9 fold and the “MHCII surface expression on PBMCs, ratio to SEA-h00; SEA-CD40 0.1 µg/mL, 24 hrs” value [2] was 1.19 fold. The “MHCII surface expression on PBMCs, ratio to SEA-h00; SEA-CD40 0.1 µg/mL, 48 hrs” value [2] was 1.5 fold, the “MHCII surface expression on PBMCs, ratio to SEA-h00; SEA-CD40 1 µg/mL, 6 hrs” value [2] was 1.14 fold and the “MHCII surface expression on PBMCs, ratio to SEA-h00; SEA-CD40 1 µg/mL, 24 hrs” value [2] was 1.76 fold. For the same binder, the “MHCII surface expression on PBMCs, ratio to SEA-h00; SEA-CD40 1 µg/mL, 48 hrs” value [2] was 1.57 fold, the “MHCII surface expression on PBMCs, ratio to SEA-h00; SEA-CD40 10 µg/mL, 6 hrs” value [2] was 1.1 fold and the “MHCII surface expression on PBMCs, ratio to SEA-h00; SEA-CD40 10 µg/mL, 24 hrs” value [2] was 1.62 fold. The “MHCII surface expression on PBMCs, ratio to SEA-h00; SEA-CD40 10 µg/mL, 48 hrs” value [2] was 2.1 fold, the “MHCII surface expression on PBMCs, ratio to SEA-h00; SEA-CD40 100 µg/mL, 6 hrs” value [2] was 1.13 fold and the “MHCII surface expression on PBMCs, ratio to SEA-h00; SEA-CD40 100 µg/mL, 24 hrs” value [2] was 1.64 fold. The “MHCII surface expression on PBMCs, ratio to SEA-h00; SEA-CD40 100 µg/mL, 48 hrs” value [2] was 2.1 fold, the Kd [3] was 27.5 nM and the Kd [4] was 5.2 nM.

B2: dacetuzumab (fucosylated humanized S2C6) (antibody, human IgG1, kappa)
heavy: not shown
light: DIQMTQSPSSLSASVGDRVTITCRSSQSLVHSNGNTFLHWYQQKPGKAPKLLIYTVSNRFSGVPSRFSGSGSGTDFTLTISSLQPEDFATYFCSQTTHVPWTFGQGTKVEIKRTVAAPSVFIFPPSDEQLKSGTASVVCLLNNFYPREAKVQWKVDNALQSGNSQESVTEQDSKDSTYSLSSTLTLSKADYEKHKVYACEVTHQGLSSPVTKSFNRGEC
notes: also called SGN-40; SGN40; copies: 2 + 2
B2 showed a Kd [3] of 303 nM and a Kd [4] of 37.9 nM.
